B1: Hairpin Ribozyme (parent)
chain: GUCCUCUUUCACGUGCGCGUGAAAGAGAGAAGUGAACCAGAGAAACACACGUUGUGGUAUAUUACCUGGUA

Variants of: B1
Test: self-cleavage, relative activity (ratio to wild type); higher = more cleavage; co-transcriptional

Row | Variant | self-cleavage
1 | U9A A22C | 0.773
2 | U9A A22G | 0.605
3 | U9A A23U | 0.472
4 | U9A A24C | 0.514
5 | U9A A24U | 0.466
6 | U9A A26C | 0.364
7 | U9A A26U | 0.424
8 | U9A A28C | 0.266
9 | U9A A28G | 0.748
10 | U9A A35G | 0.744
11 | U9A A35U | 0.578
12 | U9A A39U | 0.335
13 | U9A A41G | 0.675
14 | U9A A43C | 0.142
15 | U9A A43G | 0.179
16 | U9A A44G | 0.0648
17 | U9A A45G | 0.172
18 | U9A A47G | 0.0847
19 | U9A A47U | 0.135
20 | U9A A49U | 0.179
21 | U9A A59C | 0.0956
22 | U9A A59G | 0.154
23 | U9A A71G | 0.707
24 | U9A C18U | 0.775

Row | Variant | self-cleavage
25 | U9A C37A | 0.193
26 | U9A C37G | 0.189
27 | U9A C37U | 0.317
28 | U9A C38U | 0.388
29 | U9A C46G | 0.135
30 | U9A C46U | 0.134
31 | U9A C48A | 0.144
32 | U9A C50A | 0.264
33 | U9A C50G | 0.214
34 | U9A C65G | 0.203
35 | U9A C65U | 0.335
36 | U9A C66U | 0.266
37 | U9A G13C | 0.399
38 | U9A G19A | 0.588
39 | U9A G21C | 0.465
40 | U9A G25A | 0.191
41 | U9A G25C | 0.232
42 | U9A G32A | 0.179
43 | U9A G42U | 0.253
44 | U9A G51U | 0.675
45 | U9A G54C | 0.3
46 | U9A G56C | 0.0939
47 | U9A G68A | 0.223
48 | U9A U14C | 0.62

Row | Variant | self-cleavage
49 | U9A U14G | 0.74
50 | U9A U52G | 0.472
51 | U9A U53C | 0.732
52 | U9A U53G | 0.703
53 | U9A U55G | 0.279
54 | U9A U58A | 0.344
55 | U9A U58G | 0.494
56 | U9A U60G | 0.484
57 | U9A U62G | 0.122
58 | U9A U70G | 0.532
59 | U9C A11U | 0.411
60 | U9C A22C | 0.799
61 | U9C A22G | 1.04
62 | U9C A24U | 0.677
63 | U9C A26U | 0.546
64 | U9C A30C | 0.0706
65 | U9C A36G | 0.882
66 | U9C A41G | 0.706
67 | U9C A44U | 0.247
68 | U9C A47G | 0.123
69 | U9C A59C | 0.142
70 | U9C A59U | 0.146
71 | U9C A61U | 0.0555
72 | U9C A64C | 0.201

Row | Variant | self-cleavage
73 | U9C A64G | 0.381
74 | U9C A64U | 0.0987
75 | U9C A71U | 0.68
76 | U9C C10A | 0.696
77 | U9C C10U | 0.527
78 | U9C C12U | 0.665
79 | U9C C37G | 0.595
80 | U9C C37U | 0.529
81 | U9C C46A | 0.122
82 | U9C C50G | 0.258
83 | U9C C50U | 0.314
84 | U9C C65U | 0.258
85 | U9C G13U | 0.469
86 | U9C G17U | 0.709
87 | U9C G19A | 0.704
88 | U9C G21A | 0.5
89 | U9C G21C | 0.479
90 | U9C G25A | 0.24
91 | U9C G25C | 0.314
92 | U9C G27C | 0.109
93 | U9C G32U | 0.0498
94 | U9C G51A | 0.775
95 | U9C G51C | 0.761
96 | U9C G54A | 0.501

Row | Variant | self-cleavage
97 | U9C G54C | 0.413
98 | U9C G57C | 0.0619
99 | U9C G68U | 0.217
100 | U9C U14C | 0.533
101 | U9C U33C | 0.104
102 | U9C U55G | 0.266
103 | U9C U58C | 0.747
104 | U9C U60G | 0.615
105 | U9C U62G | 0.199
106 | U9C U63A | 0.131
107 | U9C U67C | 0.203
108 | U9C U67G | 0.283
109 | U9C U70G | 0.687
110 | U9G A11U | 0.566
111 | U9G A22G | 0.79
112 | U9G A23C | 0.589
113 | U9G A23U | 0.482
114 | U9G A24G | 0.672
115 | U9G A28U | 0.46
116 | U9G A35G | 0.546
117 | U9G A36C | 0.381
118 | U9G A36G | 0.793
119 | U9G A36U | 0.431
120 | U9G A39C | 0.356

Row | Variant | self-cleavage
121 | U9G A41U | 1.15
122 | U9G A44U | 0.162
123 | U9G A45C | 0.0983
124 | U9G A47G | 0.231
125 | U9G A49C | 0.182
126 | U9G A49U | 0.163
127 | U9G A59C | 0.275
128 | U9G A59U | 0.101
129 | U9G A61G | 0.257
130 | U9G A71C | 1.2
131 | U9G A71G | 0.779
132 | U9G A71U | 0.601
133 | U9G C10A | 0.735
134 | U9G C10U | 0.743
135 | U9G C12A | 0.499
136 | U9G C12G | 0.53
137 | U9G C16G | 0.431
138 | U9G C18A | 0.707
139 | U9G C38A | 0.243
140 | U9G C38U | 0.41
141 | U9G C65G | 0.207
142 | U9G C66A | 0.279
143 | U9G G15C | 0.893
144 | U9G G15U | 0.894

Row | Variant | self-cleavage
145 | U9G G17A | 0.571
146 | U9G G17U | 0.847
147 | U9G G19C | 0.56
148 | U9G G25A | 0.153
149 | U9G G27C | 0.115
150 | U9G G29A | 0.0566
151 | U9G G29C | 0.129
152 | U9G G29U | 0.1
153 | U9G G32U | 0.123
154 | U9G G40C | 0.104
155 | U9G G42U | 0.364
156 | U9G G51A | 0.626
157 | U9G G54A | 0.418
158 | U9G G56U | 0.124
159 | U9G G57A | 0.132
160 | U9G G68C | 0.136
161 | U9G G69C | 0.299
162 | U9G U14G | 0.597
163 | U9G U20G | 0.333
164 | U9G U33A | 0.102
165 | U9G U33C | 0.176
166 | U9G U55C | 0.163
167 | U9G U58C | 0.794
